One experiment concerns the target T1, HCoV-HKU1 S1 (HCoV-HKU1, UniProt Q5MQD0 13-760).
T1 construct: domain: S1
T1 sequence: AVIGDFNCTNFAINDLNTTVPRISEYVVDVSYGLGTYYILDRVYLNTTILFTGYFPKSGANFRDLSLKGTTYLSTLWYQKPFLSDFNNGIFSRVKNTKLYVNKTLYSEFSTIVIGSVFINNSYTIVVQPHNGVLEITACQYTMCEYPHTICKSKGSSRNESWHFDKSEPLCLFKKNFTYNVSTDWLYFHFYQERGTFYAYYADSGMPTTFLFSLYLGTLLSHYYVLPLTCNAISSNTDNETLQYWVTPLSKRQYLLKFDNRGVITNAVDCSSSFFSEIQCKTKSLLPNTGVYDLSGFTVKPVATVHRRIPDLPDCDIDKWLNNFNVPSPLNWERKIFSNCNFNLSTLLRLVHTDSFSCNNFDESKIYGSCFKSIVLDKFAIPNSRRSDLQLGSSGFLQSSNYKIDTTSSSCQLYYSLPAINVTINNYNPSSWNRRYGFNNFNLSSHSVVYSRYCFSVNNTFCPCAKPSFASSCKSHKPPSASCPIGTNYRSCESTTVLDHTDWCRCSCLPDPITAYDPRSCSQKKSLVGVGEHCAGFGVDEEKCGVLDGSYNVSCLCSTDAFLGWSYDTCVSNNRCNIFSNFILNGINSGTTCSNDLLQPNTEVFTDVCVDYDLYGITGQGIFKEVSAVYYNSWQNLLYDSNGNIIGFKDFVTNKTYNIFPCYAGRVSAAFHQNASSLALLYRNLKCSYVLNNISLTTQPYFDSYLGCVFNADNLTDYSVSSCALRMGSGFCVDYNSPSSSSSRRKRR
Description: Octet binding specificity analysis (FIG. 10). On the technique in general: In BLI a coated tip is dipped into the sample, and binding shifts an interference pattern.

The target of experiment [1] is SARS-CoV-2 S protein (spike protein) (SARS-CoV-2, UniProt P0DTC2 16-1213). In words: ELISA, S proteins on plate. Background: An ELISA detects its analyte on a solid surface through an enzyme-linked reagent.

B1: No. 139 antibody (full IgG) (antibody, V domains shown)
VH: QITLKESGPTLVKPTQTLTLTCSFSGFSLSTSGVGVGWIRQPPGKALEWLALIDWDDNKYHTTSLKTRLTISKDTSKNQVVLTMTNMDPVDTATYYCARIPGFLRYRNRYYYYGMDVWGQGTTVTVSS
VL: ELVLTQPPSVSAAPGQKVTISCSGSSSNIGNNYVSWYQQLPGTAPKLLIYDNNKRPSGIPDRFSGSKSGTSATLGITGLQTGDEADYYCGTWDSSLSAGVFGGGTELTVL
notes: also called CT-P59
Take B1: in the experiment with HCoV-HKU1 S1, the binding result was “no binding”.

B2: No. 266 scFv-Fc antibody fragment (scFv, V domains shown)
VH: EVQLVESGGGLVQPGGSLRLSCAASGFTVSSNYMTWVRQAPGKGLEWVSVIYSGGSTFYADSVKGRFTISRDNSKNTLYLQMNSLRAEDTAVYYCARDLVVYGMDVWGQGTTVTVSS
VL: ELELTQPPSVSVAPGKTARITCGGNNIGSKSVHWYQQKPGQAPVLVIYYDSDRPSGIPERFSGSNSGNTATLTISRVEAGDEADYYCQVRDSSSDHPVFGGGTKVTVL
With B2, the Binding ability in experiment [1] was 0.8 relative to positive control antibody.

B3: No. 268 scFv-Fc antibody fragment (scFv, V domains shown)
VH: QVQLVQSGGGVVQPGRSLRLSCAASGFTVSSNYMTWVRQAPGKGLEWVSVIYSGGSTFYADSVKGRFTISRDNSKNTLYLQMNSLRAEDTAVYYCARDLVVYGMDVWGQGTTVTVSS
VL: ELELTQPPSVSGAPGQRVTISCTGSDSNIGAGYDVHWYQQLPGTAPKLLIYNNNNRPSGVPDRFSGSKSGTSASLAITGLQAEDEADYFCQSSDSGLTGWVFGGGTKLTVL
In the case of B3, the Binding ability in experiment [1] is 1.09 relative to positive control antibody.

B4: No. 276 scFv-Fc antibody fragment (scFv, V domains shown)
VH: QVQLVQSGGGLVQPGGSLRLSCAASGFTVSSNYMTWVRQAPGKGLEWVSVIYSGGSTFYADSVKGRFTISRDNSKNTLYLQMNSLRAEDTAVYYCARDLVVYGMDVWGQGTTVTVSS
VL: ELELTQPPSASGAPGQRVTISCSGSSSNIGGSDVGWYQHLPGMAPRLLIYKSNQRPSGVPDRFSASKSGTSASLAISGLQSEDEGDYYCATWDDRLNWVFGGGTKVTVL
For the molecule B4, in experiment [1], the Binding ability was 1 relative to positive control antibody.

Source of the values: US20230113734A1 (CELLTRION, published 2023).
